The term koff denotes a measure of how fast the partners let go of each other. High values mean fast dissociation, low ones slow dissociation. As a reminder, the Kd is the constant that tells how readily two partners part at equilibrium.

Test in all cases: SPR
In assay [1] the target is T1, Bal gp120 (HIV-1 clade B isolate Bal).
The target of assay [2] is T1, Bal gp120. The source holds these as a separate data set.
The target of assay [3] is autologous gp120 antigen B (HIV-1 clade B isolate 92US715.6).
Assay [4] has as its target autologous gp120 antigen Czm (HIV-1 clade C isolate 96ZM652).
For assay [5], the target named is autologous gp120 antigen A2 (HIV-1 clade A isolate 92UG037.8).
The target in assay [6] is wild type gp120 Env protein AE (HIV-1 clade E isolate 93TH976.17).

B1: HmAb64 (antibody, V domains shown)
VH: QVQLVQSGAEVKKPGASVKVSCKASGYTFTSYDITWVRQAPGQGLEWMGWISAYNGDTNYAQRLQGRVTMTTDTSTSTAYMELRSLRSDDTAVYYCARAKHTVLVTAMRWFDPWGQGTLVTVSS
VL: DIQMTQSPSSLSASVGDRVTITCRASQSISNYLNWYQQKPGKAPKLLISATSSLQSGVPSRFSGSGSGTDFTLTISSLQPDDFATYYCQQSYSTPWTFGQGTKLEIK
On to B1, for which the koff came out at 0.000459 s⁻¹ with Bal gp120 [1]; 0.000684 s⁻¹ in assay [3]; 0.000454 s⁻¹ in assay [4]; 0.000641 s⁻¹ in assay [5]; 0.000423 s⁻¹ in assay [6]. Moreover, the Kd stood at 16 nM with Bal gp120 [2]; 22.9 nM in assay [3]; 22.5 nM in assay [4]; 39.4 nM in assay [5]; 20 nM in assay [6].

For the origin of these results see paper PMC10602183 (2023).
